Results on 31 molecules are retold here after US20210380703A1 (RIGEL PHARMACEUTICALS, published 2021).

First the molecules themselves.
B1: 374_G09 (antibody, V domains shown)
VH: EVQLLESGGGLVQPGGSLRLSCAASGFTFSSYSMNWVRQAPGKGLEWVAGINYNGGYKGYADSVKGRFTISRDNSKNTLYLQMNSLRAEDTAVYYCARGANWHDTHLDYWGQGTLVTVSS
VL: DIQMTQSPSSLSASVGDRVTITCRASQSIVRYLNWYQQKPGKAPKLVIYAATSLASGVPSRFSGSGSGTDFTLTISSLQPEDFATYYCQQSYELPLTFGGGTKVEIK
notes: Group III
B2: 376_B10 (antibody, V domains shown)
VH: B1 VH with S31D, H106A
VL: B1 VL with V30L, R31S, E93S, L94T
notes: Group III
B3: 376_C08 (antibody, V domains shown)
VH: B1 VH with S30D, G55S, K58T
VL: not shown
notes: Group III
B4: 374_H01 (antibody, V domains shown)
VH: B1 VH with S30D, K58T, G59S
VL: B1 VL with V30L, R31S, L94N
notes: Group III
B5: 375_H05 (antibody, V domains shown)
VH: B1 VH with A49S, G50N, K58T, H106A
VL: B1 VL with V30L, R31S, L33V, V47L, L54R, E93D, L94T
notes: Group III
B6: 376_E02 (antibody, V domains shown)
VH: B1 VH with H106A
VL: B1 VL with V30L, R31S, L33V, L54R, A55H, Y92D, E93N, L94T
notes: Group III
B7: 375_A01 (antibody, V domains shown)
VH: B1 VH with S30D, K58T, G59S, H106A
VL: B1 VL with V30L, R31S, L54R, E93N, L94T
notes: Group III
B8: 375_D10 (antibody, V domains shown)
VH: B1 VH with K58T, G59S, H106A
VL: B1 VL with V30L, R31T, L33V, V47L, L54R, Y92D, E93D, L94S
notes: Group III
B9: 375_E06 (antibody, V domains shown)
VH: B1 VH with A49S, G59S, H106A
VL: B1 VL with V30L, R31S, L54R, E93D, L94S
notes: Group III
B10: 376_B03 (antibody, V domains shown)
VH: B1 VH with G55S, G59S, H106A
VL: B1 VL with V30L, R31S, L33V, A51V, L54R, A55H, E93D, L94S
notes: Group III
B11: 374_G10 (antibody, V domains shown)
VH: B1 VH with A49S, G50S, G55S, K58T, G59S
VL: B1 VL with R31S, A51V, L54R, E93D, L94S
notes: Group III
B12: 375_E05 (antibody, V domains shown)
VH: B1 VH with K58T, G59S, H106A
VL: B1 VL with V30L, R31S, E93S, L94S
notes: Group III
B13: 375_F08 (antibody, V domains shown)
VH: B1 VH with S33G, A49S, G50S, G55S, G59S
VL: B1 VL with V30L, R31S, V47L, L54R, A55H, E93D, L94N
notes: Group III
B14: 374_H11 (antibody, V domains shown)
VH: B1 VH with A49S, K58T, G59S, H106A
VL: B1 VL with V30I, R31S, L33V, A55H, E93S, L94N
notes: Group III
B15: 375_A07 (antibody, V domains shown)
VH: B1 VH with S30D, A49S, G50S, G55S, K58T
VL: B1 VL with V30L, R31T, V47L, L54R, E93D, L94T
notes: Group III
B16: 374_G11 (antibody, V domains shown)
VH: B1 VH with S31D, A49S, K58T, G59S, H106A
VL: B1 VL with V30I, R31S, L33V, E93D, L94S
notes: Group III
B17: 375_F02 (antibody, V domains shown)
VH: B1 VH with G50S, G55S, K58T, G59S
VL: B1 VL with V30L, R31S, V47L, L54R, E93D, L94S
notes: Group III
B18: 375_G05 (antibody, V domains shown)
VH: B1 VH with K58T, G59S, H106A
VL: B1 VL with R31S, V47L, A51V, L54R, E93D, L94S
notes: Group III
B19: 375_F07 (antibody, V domains shown)
VH: B1 VH with S31D, A49S, G50N, K58T, H106A
VL: B1 VL with V30L, R31S, V47L, L54R, E93D, L94S
notes: Group III
B20: 376_C04 (antibody, V domains shown)
VH: B1 VH with S33G, A49S, G50N, K58T, H106A
VL: B1 VL with V30L, R31S, L33V, V47L, A51V, L54R, A55H, E93D, L94N
notes: Group III
B21: 376_A03 (antibody, V domains shown)
VH: B1 VH with S33G, K58T, H106A
VL: B1 VL with V30L, R31T, V47L, L54R, E93S, L94T
notes: Group III
B22: 375_A12 (antibody, V domains shown)
VH: B1 VH with A49S, G55S, G59S, H106A
VL: B1 VL with V30L, R31S, A51V, L54R, L94T
notes: Group III
B23: 375_H07 (antibody, V domains shown)
VH: B1 VH with K58T, G59S, H106A
VL: B1 VL with V30L, R31S, V47L, E93S, L94S
notes: Group III
B24: 376_D07 (antibody, V domains shown)
VH: B1 VH with S30D, A49S, K58T, G59S
VL: not shown
notes: Group III
B25: 375_E03 (antibody, V domains shown)
VH: B1 VH with S31D, G50N, K58T
VL: B1 VL with V30L, R31T, E93D, L94N
notes: Group III
B26: 375_B12 (antibody, V domains shown)
VH: B1 VH with S30D, G59S, H106A
VL: B1 VL with R31T, V47L, L54R, E93D, L94T
notes: Group III
B27: 375_E02 (antibody, V domains shown)
VH: B1 VH with S31D, K58T, G59S, H106A
VL: B1 VL with V30L, R31T, V47L, L54R, E93S, L94S
notes: Group III
B28: 375_C04 (antibody, V domains shown)
VH: B1 VH with S31D, K58T, G59S, H106A
VL: B1 VL with V30L, R31T, L54R, L94S
notes: Group III
B29: 375_A08 (antibody, V domains shown)
VH: B1 VH with K58T, H106A
VL: B1 VL with R31T, V47L, L54R, L94S
notes: Group III
B30: 375_G04 (antibody, V domains shown)
VH: B1 VH with S33G, G50S, G55S, K58T
VL: B1 VL with R31S, L33V, V47L, E93D, L94S
notes: Group III
B31: 375_D01 (antibody, V domains shown)
VH: B1 VH with A49S, K58T, H106A
VL: B1 VL with V30L, R31T, L54R, L94T
notes: Group III

Changes are numbered by the printed parent chain.
Further: test concentration or dose not given here.

T2 sequence (P27038 20-135 limits assumed): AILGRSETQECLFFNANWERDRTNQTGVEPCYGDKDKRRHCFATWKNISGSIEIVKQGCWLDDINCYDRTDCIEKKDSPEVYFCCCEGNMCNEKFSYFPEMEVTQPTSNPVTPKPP

In the first assay the target is T1, human ACVR2A (human, UniProt P27037 20-135, limits assumed).
T1 construct: coated antigen of the initial ELISA; also called activin receptor, type II A
T1 sequence (P27037 20-135 limits assumed): as the sequence (P27038 20-135 limits assumed) above, with R20K, I73V counted along it
In words: ELISA. The gist of the method:
(§1)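 mAb binding by ELISA; antigens: hu ACVR2A, mu ACVR2A; pos ctrl biotinylated goat anti-hu kappa LC; neg ctrl hu Fc.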
On the technique in general: In an ELISA, binding on a coated surface is turned into a signal by an enzyme label.
In the case of B1, the optical density stood at 3.66 OD.
Same read-out and setting: for B2 the value was 3.6 OD; for B3, 3.61 OD.
B4 returned an optical density of 3.08 OD.
Still for that read-out and setting: for B5 the value was 3.35 OD.
Same read-out and setting: for B6 the value was 3.3 OD.
The molecule B7 showed an optical density of 3.28 OD.
On the same count and under the same terms, for B8 the value was 3.26 OD.
Still for that read-out and setting: the value for B9 was 3.85 OD; that for B10 was 3.68 OD.
On the same count and under the same terms, the value for B11 was 3.68 OD; that for B12 was 3.67 OD; that for B13 was 3.5 OD.
For B14, the optical density was determined as 3.27 OD.
Molecule B15 yielded an optical density of 3.58 OD.
On the same count and under the same terms, the value for B16 was 3.65 OD.
Same read-out and setting: for B17 the value was 3.6 OD; for B18, 3.71 OD; for B19, 3.67 OD.
On the same count and under the same terms, the value for B20 was 3.63 OD; that for B21 was 3.61 OD.
B22 displayed an optical density of 3.66 OD.
Same read-out and setting: for B23 the value was 3.3 OD.
Still for that read-out and setting: for B24 the value was 3.38 OD.
Same read-out and setting: for B25 the value was 3.57 OD; for B26, 3.65 OD; for B27, 3.58 OD.
Regarding B28, the optical density stood at 3.68 OD.
On the same count and under the same terms, the value for B29 was 3.68 OD; that for B30 was 2.91 OD; that for B31 was 3.3 OD.

Another assay addresses T2, mouse ACVR2A (mouse, UniProt P27038 20-135, limits assumed).
T2 construct: coated antigen of the initial ELISA
In words: ELISA. The gist of the method: as §1
B1 displayed an optical density of 3.6 OD.
The same measure, in the same setting: for B2 the value was 3.67 OD; for B3, 3.63 OD.
Same read-out and setting: for B4 the value was 3.26 OD; for B5, 3.33 OD.
On the same count and under the same terms, for B6 the value was 3.38 OD.
B7: the optical density is 3.68 OD.
B8 yielded an optical density of 3.45 OD.
Same read-out and setting: for B9 the value was 3.67 OD; for B10, 3.67 OD; for B11, 3.74 OD.
On the same count and under the same terms, the value for B12 was 3.71 OD.
On to B13, for which the optical density is 3.58 OD.
In turn, B14 yielded an optical density of 3.29 OD.
On the same count and under the same terms, for B15 the value was 3.64 OD.
The same measure, in the same setting: the value for B16 was 3.6 OD; that for B17 was 3.65 OD.
Still for that read-out and setting: the value for B18 was 3.75 OD.
With B19, the optical density was 3.71 OD.
Still for that read-out and setting: for B20 the value was 3.65 OD; for B21, 3.65 OD; for B22, 3.35 OD.
Molecule B23 came in with an optical density of 3.29 OD.
Take B24: the optical density is 3.44 OD.
Still for that read-out and setting: the value for B25 was 3.64 OD; that for B26 was 3.34 OD; that for B27 was 3.69 OD.
Same read-out and setting: the value for B28 was 3.67 OD; that for B29 was 3.69 OD; that for B30 was 3.29 OD.
The molecule B31 yielded an optical density of 3.61 OD.

The target in the next assay is T3, biotinylated goat anti-human kappa light chain.
T3 construct: positive control of the ELISA
In words: ELISA, positive control. The method, boiled down: as §1
For B1, the optical density turned out to be 3.26 OD.
On to B2, for which the optical density stood at 3.46 OD.
The molecule B3 came in with an optical density of 3.46 OD.
Consider B4, for which the optical density worked out at 3.07 OD.
On the same count and under the same terms, for B5 the value was 3.17 OD; for B6, 3.41 OD; for B7, 2.91 OD.
On the same count and under the same terms, for B8 the value was 3.21 OD; for B9, 3.33 OD.
As for B10, the optical density was 3.52 OD.
Same read-out and setting: the value for B11 was 3.23 OD; that for B12 was 3.28 OD.
On the same count and under the same terms, the value for B13 was 3.31 OD; that for B14 was 3.15 OD; that for B15 was 3.11 OD.
On the same count and under the same terms, for B16 the value was 3.25 OD; for B17, 3.2 OD; for B18, 3.26 OD.
B19 displayed an optical density of 3.22 OD.
Same read-out and setting: for B20 the value was 3.4 OD.
With B21, the optical density was determined as 3.23 OD.
The same measure, in the same setting: for B22 the value was 3.14 OD.
On the same count and under the same terms, the value for B23 was 3.27 OD; that for B24 was 3.44 OD; that for B25 was 3.18 OD.
Same read-out and setting: for B26 the value was 3.28 OD.
As to B27, the optical density amounted to 3.2 OD.
Still for that read-out and setting: for B28 the value was 3.21 OD; for B29, 3.14 OD.
For B30, the optical density came to 3.19 OD.
The same measure, in the same setting: for B31 the value was 3.1 OD.
